# Data: paper PMC4887207, “Viral hijacking of a replicative helicase loader and its implications for helicase loading control and phage replication” (eLife, 2016)
# Tests used:
# [1] = target: SeMet-SaDnaI^AAA+ (Staphylococcus aureus) (UniProt Q3ZUA6); assay: crystal structure; ADP•BeF3-bound SaDnaI^AAA+•77ORF104 complex, SeMet SAD, 1.9 Å; complex formed with two-fold excess of 77ORF104
# [2] = target: SaDnaI^AAA+ (residues 136-306) (Staphylococcus aureus) (UniProt Q3ZUA6); assay: fluorescence polarisation; anisotropy-based competition; 20 nM labeled 77ORF104 and 2 µM SaDnaI^AAA+, unlabeled 77ORF104 or mutant titrated; 50 mM HEPES-KOH pH 7.5, 125 mM KCl, 10% glycerol, 5 mM MgCl2, 1 mM DTT; apparent
# [3] = target: SaDnaI^AAA+ (residues 136-306) (UniProt Q3ZUA6); assay: competition-based fluorescence anisotropy assay; settings: read at the highest unlabeled competitor concentration (last point, just beyond the 10 µM tick); the competitor displaces N-terminally labeled wild-type …; parent: est. 20; read off a plot
# [4] = target: the molecule itself; assay: SEC; analytical gel filtration, 5/150 GL Superdex 200; 20 mM Tris-HCl pH 8.0, 200 mM NaCl, 5% glycerol, 5 mM MgCl2, 1 mM BME, 10 mM ATP; 7 µM SaDnaC, 14 µM SaDnaI, 14 µM 77ORF013, 30 µM 77ORF104; peak fractions on SDS-PAGE
# [5] = target: the molecule itself; assay: centrifugal pelleting assay; 90 µM SaDnaI with or without 180 µM 77ORF104, 20 min on ice, 14,000 x g 1 min; 20 mM HEPES-KOH pH 7.5, 100 mM NaCl, 10% glycerol, 5 mM MgCl2, 6 mM ATP; SDS-PAGE of pellet and supernatant
# [6] = target: N-terminally labeled, wild-type 77ORF104 (Staphylococcus bacteriophage 77); assay: fluorescence polarisation; fluorescence anisotropy; 20 nM N-terminally AlexaFluor 488-labeled 77ORF104, unlabeled protein titrated in 2-fold steps; 50 mM HEPES-KOH pH 7.5, 125 mM KCl, 10% glycerol, 5 mM MgCl2, 1 mM DTT; single-site fit; apparent
molecule,measurement,setting,value
phage 77 ORF104 protein,stoichiometry N,[1],1
phage 77 ORF104 protein (natural protein),Ki,[2],1620 nM
phage 77 ORF104 protein K39E,response,[3],26 mA
phage 77 ORF104 protein Y17E,response,[3],57 mA
"SaDnaC replicative helicase (natural protein, Staphylococcus aureus, UniProt Q9AQH7 1-466, looked up, Staphylococcus aureus replicative helicase DnaC (a DnaB-family helicase); also called S. aureus DnaC replicative helicase; host helicase; not shown: His6, N-terminal, cleaved; MBP, N-terminal, cleaved) MDRMYEQNQMPHNNEAEQSVLGSIIIDPELINTTQEVLLPESFYRGAHQHIFRAMMHLNEDNKEIDVVTLMDQLSTEGTLNEAGGPQYLAELSTNVPTTRNVQYYTDIVSKHALKRRLIQTADSIANDGYNDELELDAILSDAERRILELSSSRESDGFKDIRDVLGQVYETAEELDQNSGQTPGIPTGYRDLDQMTAGFNRNDLIILAARPSVGKTAFALNIAQKVATHEDMYTVGIFSLEMGADQLATRMICSSGNVDSNRLRTGTMTEEDWSRFTIAVGKLSRTKIFIDDTPGIRINDLRSKCRRLKQEHGLDMIVIDYLQLIQGSGSRASDNRQQEVSEISRTLKALARELKCPVIALSQLSRGVEQRQDKRPMMSDIRESGSIEQDADIVAFLYRDDYYNRGGDEDDDDDGGFEPQTNDENGEIEIIIAKQRNGPTGTVKLHFMKQYNKFTDIDYAHADMM",stoichiometry N,[4],2
"full-length Staphylococcus aureus DnaI (natural protein, UniProt Q3ZUA6 1-306, looked up, Staphylococcus aureus helicase loader DnaI, residues 1-306 by the limits of the domain constructs; Residues 136-306 are in PDB 5HE8 and 5HE9; also called SaDnaI; FL SaDnaI; not shown: His6, N-terminal, cleaved; MBP, N-terminal, cleaved) MKQFKSIINTSQDFEKRIEKIKKEVINDPDVKQFLEAHRAELTNAMIDEDLNVLQEYKDQQKHYDGHKFADCPNFVKGHVPELYVDNNRIKIRYLQCPCKIKYDEERFEAELITSHHMQRDTLNAKLKDIYMNHRDRLDVAMAADDICTAITNGEQVKGLYLYGPFGTGKSFILGAIANQLKSKKVRSTIIYLPEFIRTLKGGFKDGSFEKKLHRVREANILMLDDIGAEEVTPWVRDEVIGPLLHYRMVHELPTFFSSNFDYSELEHHLAMTRDGEEKTKAARIIERVKSLSTPYFLSGENFRNN",binding result,[5],binds
SaDnaI^AAA+ (residues 136-306) (domain or fragment) DRLDVAMAADDICTAITNGEQVKGLYLYGPFGTGKSFILGAIANQLKSKKVRSTIIYLPEFIRTLKGGFKDGSFEKKLHRVREANILMLDDIGAEEVTPWVRDEVIGPLLHYRMVHELPTFFSSNFDYSELEHHLAMTRDGEEKTKAARIIERVKSLSTPYFLSGENFRNN,Kd,[6],49 nM
